According to PMC6155056 (Science Advances, 2018):

Assays:
Assay in all cases: cryo-EM structure
[1] = molecular target: T1, CVA10 capsid protein VP2 (strain CVA10-FJ-01) (Coxsackievirus A10, strain CVA10-FJ-01 …, strain)
T1 chain: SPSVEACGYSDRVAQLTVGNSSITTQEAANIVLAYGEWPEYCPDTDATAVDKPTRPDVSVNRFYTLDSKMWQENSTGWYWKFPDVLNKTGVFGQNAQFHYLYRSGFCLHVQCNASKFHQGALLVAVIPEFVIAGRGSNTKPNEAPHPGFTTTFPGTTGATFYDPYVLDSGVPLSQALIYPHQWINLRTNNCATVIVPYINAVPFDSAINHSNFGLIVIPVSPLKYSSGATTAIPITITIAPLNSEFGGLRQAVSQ

[2] = molecular target: T2, CVA10 capsid protein VP1 (strain CVA10-FJ-01) (Coxsackievirus A10, strain CVA10-FJ-01 …, strain)
T2 chain: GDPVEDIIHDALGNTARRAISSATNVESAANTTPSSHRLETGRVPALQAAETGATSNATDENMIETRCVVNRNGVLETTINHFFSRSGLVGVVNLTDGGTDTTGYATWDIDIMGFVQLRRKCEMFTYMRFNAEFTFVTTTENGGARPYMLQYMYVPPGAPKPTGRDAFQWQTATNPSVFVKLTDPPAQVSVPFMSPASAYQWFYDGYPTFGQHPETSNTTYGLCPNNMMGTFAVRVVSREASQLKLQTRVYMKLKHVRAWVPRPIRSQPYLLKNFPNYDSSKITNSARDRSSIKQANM

[3] = molecular target: T3, CVA10 mature virion (strain CVA10-FJ-01) (Coxsackievirus A10, strain CVA10-FJ-01 …, strain)
T3 chain 1: T2 chain
T3 chain 2: T1 chain
T3 chain 3: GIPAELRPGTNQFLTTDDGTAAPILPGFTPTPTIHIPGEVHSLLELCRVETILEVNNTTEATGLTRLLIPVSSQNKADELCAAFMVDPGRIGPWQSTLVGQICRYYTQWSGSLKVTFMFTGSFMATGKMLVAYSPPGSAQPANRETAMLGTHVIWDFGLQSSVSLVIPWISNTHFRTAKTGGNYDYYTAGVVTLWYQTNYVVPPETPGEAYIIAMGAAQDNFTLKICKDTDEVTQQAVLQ
T3 chain 4: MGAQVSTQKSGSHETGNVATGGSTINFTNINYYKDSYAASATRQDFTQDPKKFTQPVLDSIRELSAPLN

[4] = molecular target: T4, CVA10 procapsid (strain CVA10-FJ-01) (Coxsackievirus A10, strain CVA10-FJ-01 …, strain)
T4 chain 1: T2 chain
T4 chain 2: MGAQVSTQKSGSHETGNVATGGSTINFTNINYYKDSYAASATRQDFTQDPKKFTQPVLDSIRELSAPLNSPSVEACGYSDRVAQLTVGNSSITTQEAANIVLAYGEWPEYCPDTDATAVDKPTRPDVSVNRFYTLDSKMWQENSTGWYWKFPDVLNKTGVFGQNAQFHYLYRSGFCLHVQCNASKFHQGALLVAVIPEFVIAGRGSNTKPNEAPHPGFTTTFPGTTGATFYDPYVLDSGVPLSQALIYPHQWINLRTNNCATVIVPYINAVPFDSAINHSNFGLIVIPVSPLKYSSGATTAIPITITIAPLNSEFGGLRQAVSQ
T4 chain 3: T3 chain 3

[5] = molecular target: T5, CVA10 capsid protein VP3 (strain CVA10-FJ-01) (Coxsackievirus A10, strain CVA10-FJ-01 …, strain)
T5 chain: T3 chain 3

[6] = molecular target: T6, CVA10 A-particle (strain CVA10-FJ-01) (Coxsackievirus A10, strain CVA10-FJ-01 …, strain)
T6 chain 1: T2 chain
T6 chain 2: T1 chain
T6 chain 3: T3 chain 3

B1: Fab 2G8 (Fab, V domains shown)
VH: EVQLQQSGPDLVKTGASVRVSCRASGYSFTSYYIHWVRLNHGKSLEWIGYINCYNGDITYNQKFKGKASFTLDTSSSTAYMEFNRLTSEDSAVYYCTRERYGTPHYHFDVWGAGP
VL: DVLMTQTPLSLPVSLGHQASISCRSSQSIVHSNGNTYLEWYLQKPGQSPKLLIYTVSNRFSGVPDRFSGSGSGTDFTLRITSVEAEDLGVYYCFQGSHIPYTFGGGTKLEIK
[1]
  binding result: binds
[2]
  binding result: binds
[3]
  stoichiometry N: 60 copies per particle
[4]
  stoichiometry N: 60 copies per particle
[5]
  binding result: binds
[6]
  stoichiometry N: 60 copies per particle
